Measurements as given in patent publication US20220144922A1 (Adimab, published 2022).
Positions count from the first letter of the chain named.

B1: ADI-15611 (antibody, V domains shown)
VH: QVQLVESGAEVKKPGSSVKVSCKASGGTFGRDSISWVRQAPGQGLEWMGGINPIFHTSHYAQKFQGRVTITADESTSTAYMELGNLRSEDTAMYYCARVPPPRGHCESTSCLWGTYFAFWGQGTLVTVSS
VL: ETTLTQSPATLSLSPGERATLSCRASQRVRSYLAWYQQKPGQAPRLLIYDASIRATGIPARFSGSGSGADFTLTISSLEPEDFAVYYCQLRDYWPPTWTFGQGTKVEIK
notes: IgG
B2: ADI-15600 (antibody, V domains shown)
VH: EVQLVESGGGLIQPGGSLRLSCAVSGFSVSSNYISWVRQPPGKGLEWVSVSYSSGVTDYADSVKGRFTTSRDNSKNTLYLQMNSLRGEDTAVYYCARELVPNFYESHGYFSVWGQGTLVTVSS
VL: DIVMTQSPGTLSLSPGERATLSCRASQRVDSSYLAWYQQKPGQAPRLLIYGGSSRATGIPDRFSGSGSGTDFTLTISRLEPEDFALYYCQQYGFSQTFGQGTKVEIK
notes: IgG; also called Antibody Number 166
B3: ADI-15599 (antibody, V domains shown)
VH: EVQLLESGGGLVQPGRSLRLSCSGSGFTFGDYALSWVRQAPGKGLEWVGFIRSKAYGGTTEYAASVKGRFTISRDDSKSIAYLQMNSLKTEDTAVYYCTMAVVVPGATDAFDIWGQGTMVTVSS
VL: NFMLTQPHSVSESPGKTVTISCTRSSGSIASDYVQWFQQRPGSSPATVIYQDNQRPSGVPDRFSGSIDTSSNSASLTISGLKTEDEADYYCHSYDSSNPWVFGGGTKLTVL
notes: IgG; also called Antibody Number 165
B4: ADI-15605 (antibody, V domains shown)
VH: QVQLVQSGPEVKKPGESLKISCKGSGYTFTTYWIGWVRQRPGKGLEWMGIIHPGDSDTRYSPSLQGQVTISVDKSINTAYLQWRSLKASDTGMYYCARFEYGDFGNDFWGQGTLVTVSS
VL: B3 VL with T23S, S31N, D32N, F37Y, A46T, Q51E, T69S, H92Q, P99H, W100R
notes: IgG
B5: ADI-15647 (antibody, V domains shown)
VH: QVQLVQSGAEVKKPGSSVRVSCEASGGTFSTYAISWVRQAPGLGLEWMGGIHPISGTANYAQSFQDRLTITVDKSTSTAYMDLSSLRSEDTAIYYCARVGLGRTWIYDTMGYLDYWGQGTLVTVSS
VL: EIVLTQSPATLSLSPGERVTLSCRASQSVNDYLAWYQQKPGQAPRLLIYDASNRATGIPARFSGSGSGTDFTLTISSLEPEDFAVYYCQHRTNWPSLTFGGGTKVEIK
B6: ADI-15657 (antibody, V domains shown)
VH: QVQLVQSGTEVKKPGSSVKVSCKASGGTFSSYAISWVRQAPGQGLEWMGGIHPTSGPANYAQKFQDRVTITVDKSTSTVYMDLSSLRSEDTAVYYCARVGVGRTWIYDTMGYLDFWGQGTLVTVSS
VL: B5 VL with L4M, V19A, N30S, S76T, T92S, N93D, V105L
B7: ADI-15665 (antibody, V domains shown)
VH: QVQLVQSGPEVKRPGSSVKVSCKASGDTFNNYAISWVRQAPGQGLEWMGGIHPTTATPNYAQKFQGRVVISADKSTSTAYLDLSRLRSEDTAMYYCARVGVGRTWVYDIMGYLDYWGQGTLVTVSS
VL: B5 VL with V19A, N30S, K39R, N53T, A60D, S65G, T92N
B8: ADI-15601 (antibody, V domains shown)
VH: EVQLLETGGGLVKPGGSLRLSCEATGFTFSDFAMSWVRQAPGKGLEWVSLIKSSDYPYYADSVRGRFTISRDNSKNTLYLRMDNLRADDTAVYYCAKDADFWSGEAYNGGYNFDSWGQGTLVTVSS
VL: EIVLTQSPATLSVSPGERATLSCRASQSIGTNLAWYQQKPGQAPRLLIFGASTRATGIPARFTGSGSGTEFTLTIGSLQSEDFAVYYCQQYNQWPPITFGGGTKVEIK
notes: IgG
B9: ADI-15614 (antibody, V domains shown)
VH: EVQLLESGGGLVKPGGSLRLSCAASGFTISGYNMFWVRQPPGKGLEWVSSITAGSSYLNYADSVKGRFIVSRDNAKNSLYLQMNSLRAEDTAVYFCARAPLLPAMMDLWGQGTTVTVSS
VL: QSVLTQPPSVSGAPGQRVTISCTGSSSNIGAGYDVHWYQQLPGTAPKLLIYTNNNRPSGVPDRFSGSKSGTSASLAITGLQAEDEADYYCQSYDRSLNGYVFGTGTKLTVL
notes: IgG
B10: ADI-15623 (antibody, V domains shown)
VH: B9 VH with S30G
VL: B9 VL with L4V, K107Q
notes: IgG; also called Antibody Number 188

Assays:
[1] = target: T1, postfusion RSV F ectodomain (F ΔFP), subtype A (respiratory syncytial virus subtype A, UniProt P03420 26-109; P03420 147-524); test: BLI, IgG on sensor
T1 construct: extracellular domain; also called Postfusion subtype A

[2] = target: T2, prefusion-stabilized RSV F ectodomain (DS-Cav1), subtype B (respiratory syncytial virus subtype B); test: BLI, IgG on sensor
T2 construct: extracellular domain; also called Prefusion subtype B

[3] = target: T3, postfusion RSV F ectodomain, subtype B (respiratory syncytial virus subtype B); test: BLI, IgG on sensor
T3 construct: extracellular domain; also called Postfusion subtype B

[4] = target: T4, RSV F protein of subtype A strain A2, on virus (respiratory syncytial virus subtype A …, UniProt P03420 26-574); test: cell-based or functional assay
[5] = target: RSV F protein of subtype B strain 18537, on virus (respiratory syncytial virus subtype B …, UniProt P13843 26-574); test: cell-based or functional assay
[6] = target: T4, RSV F protein of subtype A strain A2, …; test: cell-based or functional assay; remark: listed apart in the source
[7] = target: HMPV F protein (NL/1/00, A1 sublineage), on virus (human metapneumovirus); test: cell-based or functional assay

| Binder | Kd [1] | Kd [2] | Kd [3] | Neut IC50 (ug/ml) subtype A [4] | Neut IC50 (ug/ml) subtype B [5] | RSV-A2 IC50 [6] | HMPV-A1 IC50 [7] |
| --- | --- | --- | --- | --- | --- | --- | --- |
| B1 | 0.626 nM | 4.34 nM | 0.609 nM | 0.15 µg/mL | 0.432 µg/mL |  |  |
| B2 | 0.162 nM | 1.42 nM | 0.148 nM | 1.31 µg/mL | 0.958 µg/mL |  |  |
| B3 | 1.23 nM | 0.246 nM | 0.652 nM | 0.11 µg/mL | 0.378 µg/mL |  |  |
| B4 | 0.163 nM | 3.49 nM | 0.171 nM | > 10 µg/mL | > 10 µg/mL |  |  |
| B5 |  |  |  | > 10 µg/mL | > 10 µg/mL | > 25 µg/mL | 20.3 µg/mL |
| B6 |  |  |  | > 10 µg/mL | > 10 µg/mL | > 25 µg/mL | 11.9 µg/mL |
| B7 |  |  |  | 12.7 µg/mL | 6.25 µg/mL | 12.7 µg/mL | 13.5 µg/mL |
| B8 | 0.207 nM | 0.329 nM | 0.193 nM | 0.046 µg/mL | 0.084 µg/mL |  |  |
| B9 |  | 0.466 nM |  | 0.027 µg/mL | 0.059 µg/mL | 0.03 µg/mL | 0.22 µg/mL |
| B10 |  | 0.435 nM |  | 0.054 µg/mL | 0.108 µg/mL | 0.05 µg/mL | 0.37 µg/mL |
